How the values were obtained:
CD3E = CD3E (human, UniProt P07766 23-207); test: cell-based or functional assay
[1] = target: CD3 subunits (CD3E, CD3G, CD3D, CD3Z) (human, UniProt P07766 23-207; P09693 23-182; P04234 22-171; P20963 22-164); test: cell-based or functional assay
Chain of CD3 subunits (CD3E, CD3G, CD3D, CD3Z) (P07766 23-207, chain 1 of 4): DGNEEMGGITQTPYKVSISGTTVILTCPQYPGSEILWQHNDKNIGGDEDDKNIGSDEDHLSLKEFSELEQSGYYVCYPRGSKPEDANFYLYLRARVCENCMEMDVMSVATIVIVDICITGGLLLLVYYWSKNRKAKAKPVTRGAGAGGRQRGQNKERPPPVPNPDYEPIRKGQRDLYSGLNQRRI
Chain of CD3 subunits (CD3E, CD3G, CD3D, CD3Z) (P09693 23-182, chain 2 of 4): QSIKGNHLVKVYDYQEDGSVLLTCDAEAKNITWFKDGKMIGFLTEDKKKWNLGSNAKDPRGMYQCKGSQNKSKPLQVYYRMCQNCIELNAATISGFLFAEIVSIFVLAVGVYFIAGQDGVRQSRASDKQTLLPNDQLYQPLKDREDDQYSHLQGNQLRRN
Chain of CD3 subunits (CD3E, CD3G, CD3D, CD3Z) (P04234 22-171, chain 3 of 4): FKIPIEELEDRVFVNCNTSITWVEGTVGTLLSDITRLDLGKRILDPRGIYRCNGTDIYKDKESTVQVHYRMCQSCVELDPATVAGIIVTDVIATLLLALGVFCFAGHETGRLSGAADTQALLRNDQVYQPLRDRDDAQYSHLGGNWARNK
Chain of CD3 subunits (CD3E, CD3G, CD3D, CD3Z) (P20963 22-164, chain 4 of 4): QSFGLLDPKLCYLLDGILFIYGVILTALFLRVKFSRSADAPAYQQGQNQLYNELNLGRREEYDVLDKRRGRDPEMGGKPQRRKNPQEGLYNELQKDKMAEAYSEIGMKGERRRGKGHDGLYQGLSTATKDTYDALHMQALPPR

Chain of CD3E (P07766 23-207): as the sequence (P07766 23-207, chain 1 of 4) above

| Binder | CD3E-positive proportion [%] (Avg, n = 2), CD3-stably expressing 293T cells (CD3E) | expression of CD3 (CD3-positive proportion), cells differentiated from iPS-derived HPCs (FF-WJs524), Day 21 [1] [%] |
| --- | --- | --- |
| modified TCR ba15 (TCR) TCR alpha: SVCLFTDFDSQTNVSQSKDSDVYITDKTVLDMRSMDFKSNSAVAWSNKSDFACANAFNNSIIPEDTFFPSPESSCDVKLVEKSFETDTNLNFQNLSVIGFRILLLKVAGFNLLMTLRLWSS TCR beta: AKPVTQIVSAEAWGRADCGFTSESYQQGVLSATILYEILLGKATLYAVLVSALVLMAMVKRKDSRG | 56.5 |  |
| modified TCR ba6 (TCR) TCR alpha: NIQNPDPAVYQLRDSKSSDKSVCLFTDFDSQTNVSQSKDSDVYITDKTVLDMRSMDFKSNSAVAWSNKSDFACANAFNNSIIPEDTFFPSPESSCDVKLVEKSFETDTNLNFQNLSVIGFRILLLKVAGFNLLMTLRLWSS TCR beta: AKPVTQIVSAEAWGRADCGFTSESYQQGVLSATILYEILLGKATLYAVLVSALVLMAMVKRKDSRG | 47.6 |  |
| modified TCR ba18 (TCR) TCR alpha: IPEDTFFPSPESSCDVKLVEKSFETDTNLNFQNLSVIGFRILLLKVAGFNLLMTLRLWSS TCR beta: AKPVTQIVSAEAWGRADCGFTSESYQQGVLSATILYEILLGKATLYAVLVSALVLMAMVKRKDSRG | 89.5 |  |
| modified TCR ba7 (TCR) TCR alpha: SVCLFTDFDSQTNVSQSKDSDVYITDKTVLDMRSMDFKSNSAVAWSNKSDFACANAFNNSIIPEDTFFPSPESSCDVKLVEKSFETDTNLNFQNLSVIGFRILLLKVAGFNLLMTLRLWSS TCR beta: EDLKNVFPPEVAVFEPSEAEISHTQKATLVCLATGFYPDHVELSWWVNGKEVHSGVSTDPQPLKEQPALNDSRYCLSSRLRVSATFWQNPRNHFRCQVQFYGLSENDEWTQDRAKPVTQIVSAEAWGRADCGFTSESYQQGVLSATILYEILLGKATLYAVLVSALVLMAMVKRKDSRG | 88.6 |  |
| modified TCR ba17 (TCR) TCR alpha: KSNSAVAWSNKSDFACANAFNNSIIPEDTFFPSPESSCDVKLVEKSFETDTNLNFQNLSVIGFRILLLKVAGFNLLMTLRLWSS TCR beta: AKPVTQIVSAEAWGRADCGFTSESYQQGVLSATILYEILLGKATLYAVLVSALVLMAMVKRKDSRG | 81.9 |  |
| modified TCR ba16 (TCR) TCR alpha: DVYITDKTVLDMRSMDFKSNSAVAWSNKSDFACANAFNNSIIPEDTFFPSPESSCDVKLVEKSFETDTNLNFQNLSVIGFRILLLKVAGFNLLMTLRLWSS TCR beta: AKPVTQIVSAEAWGRADCGFTSESYQQGVLSATILYEILLGKATLYAVLVSALVLMAMVKRKDSRG | 70.7 |  |
| modified TCR ba2 (TCR) TCR alpha: NIQNPDPAVYQLRDSKSSDKSVCLFTDFDSQTNVSQSKDSDVYITDKTVLDMRSMDFKSNSAVAWSNKSDFACANAFNNSIIPEDTFFPSPESSCDVKLVEKSFETDTNLNFQNLSVIGFRILLLKVAGFNLLMTLRLWSS TCR beta: EDLKNVFPPEVAVFEPSEAEISHTQKATLVCLATGFYPDHVELSWWVNGKEVHSGVSTDPQPLKEQPALNDSRYCLSSRLRVSATFWQNPRNHFRCQVQFYGLSENDEWTQDRAKPVTQIVSAEAWGRADCGFTSESYQQGVLSATILYEILLGKATLYAVLVSALVLMAMVKRKDSRG | 84.5 | 50.4 |
| modified TCR ba8 (TCR) TCR alpha: DVYITDKTVLDMRSMDFKSNSAVAWSNKSDFACANAFNNSIIPEDTFFPSPESSCDVKLVEKSFETDTNLNFQNLSVIGFRILLLKVAGFNLLMTLRLWSS TCR beta: EDLKNVFPPEVAVFEPSEAEISHTQKATLVCLATGFYPDHVELSWWVNGKEVHSGVSTDPQPLKEQPALNDSRYCLSSRLRVSATFWQNPRNHFRCQVQFYGLSENDEWTQDRAKPVTQIVSAEAWGRADCGFTSESYQQGVLSATILYEILLGKATLYAVLVSALVLMAMVKRKDSRG | 90.3 |  |
| modified TCR ba9 (TCR) TCR alpha: KSNSAVAWSNKSDFACANAFNNSIIPEDTFFPSPESSCDVKLVEKSFETDTNLNFQNLSVIGFRILLLKVAGFNLLMTLRLWSS TCR beta: EDLKNVFPPEVAVFEPSEAEISHTQKATLVCLATGFYPDHVELSWWVNGKEVHSGVSTDPQPLKEQPALNDSRYCLSSRLRVSATFWQNPRNHFRCQVQFYGLSENDEWTQDRAKPVTQIVSAEAWGRADCGFTSESYQQGVLSATILYEILLGKATLYAVLVSALVLMAMVKRKDSRG | 90.7 | 99.5 |
| modified TCR ba3 (TCR) TCR alpha: NIQNPDPAVYQLRDSKSSDKSVCLFTDFDSQTNVSQSKDSDVYITDKTVLDMRSMDFKSNSAVAWSNKSDFACANAFNNSIIPEDTFFPSPESSCDVKLVEKSFETDTNLNFQNLSVIGFRILLLKVAGFNLLMTLRLWSS TCR beta: ATLVCLATGFYPDHVELSWWVNGKEVHSGVSTDPQPLKEQPALNDSRYCLSSRLRVSATFWQNPRNHFRCQVQFYGLSENDEWTQDRAKPVTQIVSAEAWGRADCGFTSESYQQGVLSATILYEILLGKATLYAVLVSALVLMAMVKRKDSRG | 82.3 |  |
| modified TCR ba4 (TCR) TCR alpha: NIQNPDPAVYQLRDSKSSDKSVCLFTDFDSQTNVSQSKDSDVYITDKTVLDMRSMDFKSNSAVAWSNKSDFACANAFNNSIIPEDTFFPSPESSCDVKLVEKSFETDTNLNFQNLSVIGFRILLLKVAGFNLLMTLRLWSS TCR beta: VSTDPQPLKEQPALNDSRYCLSSRLRVSATFWQNPRNHFRCQVQFYGLSENDEWTQDRAKPVTQIVSAEAWGRADCGFTSESYQQGVLSATILYEILLGKATLYAVLVSALVLMAMVKRKDSRG | 10.2 | 38.3 |
| modified TCR ba5 (TCR) TCR alpha: NIQNPDPAVYQLRDSKSSDKSVCLFTDFDSQTNVSQSKDSDVYITDKTVLDMRSMDFKSNSAVAWSNKSDFACANAFNNSIIPEDTFFPSPESSCDVKLVEKSFETDTNLNFQNLSVIGFRILLLKVAGFNLLMTLRLWSS TCR beta: FRCQVQFYGLSENDEWTQDRAKPVTQIVSAEAWGRADCGFTSESYQQGVLSATILYEILLGKATLYAVLVSALVLMAMVKRKDSRG | 48.4 |  |
| full-length TCR (ba1) (TCR) MLSLLLLLLGLGSVFSAVISQKPSRDICQRGTSLTIQCQVDSQVTMMFWYRQQPGQSLTLIATANQGSEATYESGFVIDKFPISRPNLTFSTLTVSNMSPEDSSIYLCSVDGQGNTGELFFGEGSRLTVLEDLKNVFPPEVAVFEPSEAEISHTQKATLVCLATGFYPDHVELSWWVNGKEVHSGVSTDPQPLKEQPALNDSRYCLSSRLRVSATFWQNPRNHFRCQVQFYGLSENDEWTQDRAKPVTQIVSAEAWGRADCGFTSESYQQGVLSATILYEILLGKATLYAVLVSALVLMAMVKRKDSRGSGSGEGRGSLLTCGDVEENPGPMACPGFLWALVISTCLEFSMAQTVTQSQPEMSVQEAETVTLSCTYDTSESDYYLFWYKQPPSRQMILVIRQEAYKQQNATENRFSVNFQKAAKSFSLKISDSQLGDAAMYFCAYWSNNNARLMFGDGTQLVVKPNIQNPDPAVYQLRDSKSSDKSVCLFTDFDSQTNVSQSKDSDVYITDKTVLDMRSMDFKSNSAVAWSNKSDFACANAFNNSIIPEDTFFPSPESSCDVKLVEKSFETDTNLNFQNLSVIGFRILLLKVAGFNLLMTLRLWSS | 88.7 | 99.8 |
